This assay concerns the target AVR-Pii effector domain (residues 20 to 70), purified (Magnaporthe oryzae). Kind of assay: ITC.

In paper doi:10.1101/2022.06.18.496527 (2022) one finds Kd data, which are given here for one molecule.

B1: OsExo70F2^Δ83 (residues 84 to 689) (domain or fragment)
chain: ISAAAFDAAEQLIQVWDGTPEALVFEATEDEVAEYLSAVDVAIEHLARGSGGGAGGAGSSSSSTAGRAGVAVQLAMARLEEELRHLMVRHAVPLDPTGLFFSLRRLSLGSMDDLDTSSEFDAATPHSIDVAPETARGGPLVNPFEDQVFDPVRPEAVDDLRAIADRMARAGYSRELADAYCGIRRDLLDEYLSALGVERLSIDEVQRIEWKHLNDKMKKWVQAVKTVVRVLLAGERRLCDQVLSVSDELREECFIESTKGCIMQILSFGDAVAVCPRSPEKLSRILDMYEALAEVIPEMKDLCLGSSGDGVISDVQANLDRLGDAIRGTLFEFGKVLQLESSRRAMTAGEIHPMTRYVMNYLRLLVVYSDTLDALLDDNADDQIDLARAEDQDQEHLESMTPLGKRLLKLISYLEANLEEKSKLYEDSALECIFSMNNLLYIVQKVRDSELGKILGDHWVKRRNGKIRQYSKSYLRISWMKVLSFLKDDGHGSGSGSSSGSGSGHSSSRMSIKEKFKNFNLAFEEIYRNQTTWKVPDPQLREELKISISENVIPAYRAFLGRYGSQVDGGRNSGKYIKYTPEDLESQLSDLFEGAPGPANHSRRRT
Take B1: the Kd is below 1 nM.
